Values quoted from earlier work in PMC11727785.
Like-named read-outs stand apart in the source and are kept apart here.

Experiments:
[1] = biological target: IL-18 receptor alpha chain (Homo sapiens) (UniProt Q13478)
[2] = biological target: IL-18 receptor complex (Homo sapiens) (UniProt Q13478)
IL-18 (Homo sapiens) [3] = biological target: IL-18 (Homo sapiens) (UniProt Q14116); experiment: SPR
IL-18 (Homo sapiens) [4] = biological target: IL-18 (Homo sapiens) (UniProt Q14116)

Sequence of IL-18BP (O95998 31-194): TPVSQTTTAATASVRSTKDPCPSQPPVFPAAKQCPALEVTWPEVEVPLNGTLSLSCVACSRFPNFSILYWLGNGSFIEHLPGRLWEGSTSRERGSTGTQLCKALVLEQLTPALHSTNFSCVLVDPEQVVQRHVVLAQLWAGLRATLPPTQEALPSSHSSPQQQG
Sequence of IL-18 (Homo sapiens) (Q14116 37-193): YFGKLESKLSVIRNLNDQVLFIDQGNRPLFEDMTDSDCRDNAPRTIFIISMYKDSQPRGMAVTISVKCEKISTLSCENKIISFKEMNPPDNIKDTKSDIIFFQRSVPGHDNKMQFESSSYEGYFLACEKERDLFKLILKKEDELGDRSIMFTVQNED
Sequence of IL-18 (Q14116 37-193): as above
Sequence of IL-18 receptor alpha chain (Homo sapiens) (Q13478 19-541): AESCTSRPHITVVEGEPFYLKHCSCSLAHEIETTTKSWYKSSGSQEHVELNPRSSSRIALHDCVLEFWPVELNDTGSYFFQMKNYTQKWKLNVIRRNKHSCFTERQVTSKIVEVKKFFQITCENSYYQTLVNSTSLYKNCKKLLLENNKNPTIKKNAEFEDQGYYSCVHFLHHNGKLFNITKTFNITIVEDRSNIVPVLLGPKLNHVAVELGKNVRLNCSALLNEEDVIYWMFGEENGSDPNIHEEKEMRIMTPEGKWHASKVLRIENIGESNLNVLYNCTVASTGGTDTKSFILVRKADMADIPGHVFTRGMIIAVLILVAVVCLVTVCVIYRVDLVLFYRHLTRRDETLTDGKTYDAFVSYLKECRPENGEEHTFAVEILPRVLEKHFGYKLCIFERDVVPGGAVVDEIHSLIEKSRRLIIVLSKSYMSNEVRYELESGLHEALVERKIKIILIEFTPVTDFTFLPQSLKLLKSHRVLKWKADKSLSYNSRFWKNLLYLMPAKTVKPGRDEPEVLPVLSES
Sequence of IL-18 receptor complex (Homo sapiens) (Q13478 19-541, chain 1 of 2): as the sequence (Q13478 19-541) above
Sequence of IL-18 receptor complex (Homo sapiens) (O95256 20-599, chain 2 of 2, further chain): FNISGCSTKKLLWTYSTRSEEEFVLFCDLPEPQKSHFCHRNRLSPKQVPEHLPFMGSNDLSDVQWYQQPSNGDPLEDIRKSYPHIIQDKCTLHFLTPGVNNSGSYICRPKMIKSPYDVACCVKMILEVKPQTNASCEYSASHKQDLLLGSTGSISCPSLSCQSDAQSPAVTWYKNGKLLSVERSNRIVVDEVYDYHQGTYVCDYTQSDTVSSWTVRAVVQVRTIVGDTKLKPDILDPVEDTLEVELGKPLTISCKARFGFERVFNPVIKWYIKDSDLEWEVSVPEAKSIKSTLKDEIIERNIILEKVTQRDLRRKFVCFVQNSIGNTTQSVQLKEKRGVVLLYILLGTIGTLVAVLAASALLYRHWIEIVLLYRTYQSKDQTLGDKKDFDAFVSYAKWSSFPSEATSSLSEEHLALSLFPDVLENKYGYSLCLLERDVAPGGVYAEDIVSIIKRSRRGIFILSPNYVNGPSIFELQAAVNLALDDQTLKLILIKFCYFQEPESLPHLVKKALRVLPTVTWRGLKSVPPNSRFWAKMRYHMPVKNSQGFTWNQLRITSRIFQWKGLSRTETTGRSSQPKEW

Substance | Kd [1] [nM] | Kd [2] [nM] | Kd (IL-18 (Homo sapiens) [3]) [nM] | Kd (IL-18 (Homo sapiens) [4]) [nM]
IL-18 (from UniProt Q14116) | 18.5 | 0.4 | – | –
IL-18BP (from UniProt O95998) | – | – | 0.4 | 0.05
